Assay results: patent publication US20210246166A1 (Bayer, published 2021)
Numbered stars: 1 amine (or outer) side, 2 acyl side, 3 side chain; on linkers, the order of the positions; unused ones are H or OH. Bridge positions count the residues as written; N and C are the ends. Square brackets hold non-standard residues; d marks the D form. Ends that are not written are not given here. NH(CH2CH2O)4CH2CO = O=C(COCCOCCOCCOCCN[*:1])[*:2]; Oic = O=C(O)[C@@H]1C[C@@H]2CCCC[C@@H]2N1; PEG8 = NCCOCCOCCOCCOCCOCCOCCOCCOCCC(=O)O; tBuAla = CC(C)(C)C[C@H](N)C(=O)O; Cit = NC(=O)NCCC[C@H](N)C(=O)O; Pen = CC(C)(S)[C@H](N)C(=O)O; NMeC = CN[C@@H](CS)C(=O)O; PEG3 = NCCOCCOCCOCCC(=O)O; Orn = NCCC[C@H](N)C(=O)O; Nva = CCC[C@H](N)C(=O)O; Abu = CC[C@H](N)C(=O)O; PEG2 = NCCOCCOCCC(=O)O; Sar = CNCC(=O)O

T1: recombinant human MASP1 active protease (amino acids 297-699, C-terminal His Tag) (human, UniProt P48740 297-699)
T1 sequence: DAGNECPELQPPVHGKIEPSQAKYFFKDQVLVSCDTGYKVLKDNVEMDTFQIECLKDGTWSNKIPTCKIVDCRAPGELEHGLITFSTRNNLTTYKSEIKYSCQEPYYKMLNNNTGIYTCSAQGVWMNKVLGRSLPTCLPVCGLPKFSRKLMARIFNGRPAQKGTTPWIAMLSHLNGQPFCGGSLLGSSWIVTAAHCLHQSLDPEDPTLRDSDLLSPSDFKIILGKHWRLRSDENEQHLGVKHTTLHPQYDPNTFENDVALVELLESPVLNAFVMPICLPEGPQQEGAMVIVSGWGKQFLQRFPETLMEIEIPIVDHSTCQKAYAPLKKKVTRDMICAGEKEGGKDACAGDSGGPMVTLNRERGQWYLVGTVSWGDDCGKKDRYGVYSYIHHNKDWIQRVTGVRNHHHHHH

B1: (Abu)-IC+SRS-((tBu)A)-PPIC+IPD-NH2 (peptide)
peptide: [Abu]ICSRS[tBuAla]PPICIPD-NH2
modifications: disulfide 3-11; N-terminus assumed
SMILES: CC[C@H](N)C(=O)N[C@H](C(=O)N[C@H]1CSSC[C@@H](C(=O)N[C@H](C(=O)N2CCC[C@H]2C(=O)N[C@@H](CC(=O)O)C(N)=O)[C@@H](C)CC)NC(=O)[C@H]([C@@H](C)CC)NC(=O)[C@@H]2CCCN2C(=O)[C@@H]2CCCN2C(=O)[C@H](CC(C)(C)C)NC(=O)[C@H](CO)NC(=O)[C@H](CCCNC(=N)N)NC(=O)[C@H](CO)NC1=O)[C@@H](C)CC
B2: AIC+SRSLP-(Oic)-I-(Pen)+IP-NH2 (peptide)
peptide: AICSRSLP[Oic]I[Pen]IP-NH2
modifications: disulfide 3-11; N-terminus assumed
SMILES: CC[C@H](C)[C@H](NC(=O)[C@H](C)N)C(=O)N[C@H]1CSSC(C)(C)[C@@H](C(=O)N[C@H](C(=O)N2CCC[C@H]2C(N)=O)[C@@H](C)CC)NC(=O)[C@H]([C@@H](C)CC)NC(=O)[C@@H]2C[C@@H]3CCCC[C@@H]3N2C(=O)[C@@H]2CCCN2C(=O)[C@H](CC(C)C)NC(=O)[C@H](CO)NC(=O)[C@H](CCCNC(=N)N)NC(=O)[C@H](CO)NC1=O
B3: LIC+SRS-((tBu)A)-PPI-((N-Me)C)+I-NH2 (peptide)
peptide: LICSRS[tBuAla]PPI[NMeC]I-NH2
modifications: disulfide 3-11; N-terminus assumed
SMILES: CC[C@H](C)[C@H](NC(=O)[C@@H]1CSSC[C@H](NC(=O)[C@@H](NC(=O)[C@@H](N)CC(C)C)[C@@H](C)CC)C(=O)N[C@@H](CO)C(=O)N[C@@H](CCCNC(=N)N)C(=O)N[C@@H](CO)C(=O)N[C@@H](CC(C)(C)C)C(=O)N2CCC[C@H]2C(=O)N2CCC[C@H]2C(=O)N[C@@H]([C@@H](C)CC)C(=O)N1C)C(N)=O
B4: ((N-Me)G)-IC+SRSLP-(Oic)-I-(Pen)+IP-(PEG1(10 atoms))-NH2 (peptide)
peptide: [Sar]ICSRSLP[Oic]I[Pen]IP[PEG2]-NH2
modifications: disulfide 3-11; N-terminus assumed
SMILES: CC[C@H](C)[C@H](NC(=O)CNC)C(=O)N[C@H]1CSSC(C)(C)[C@@H](C(=O)N[C@H](C(=O)N2CCC[C@H]2C(=O)NCCOCCOCCC(N)=O)[C@@H](C)CC)NC(=O)[C@H]([C@@H](C)CC)NC(=O)[C@@H]2C[C@@H]3CCCC[C@@H]3N2C(=O)[C@@H]2CCCN2C(=O)[C@H](CC(C)C)NC(=O)[C@H](CO)NC(=O)[C@H](CCCNC(=N)N)NC(=O)[C@H](CO)NC1=O
B5: (Nva)-IC+SRS-((tBu)A)-PPI-(Pen)+IPD-NH2 (peptide)
peptide: [Nva]ICSRS[tBuAla]PPI[Pen]IPD-NH2
modifications: disulfide 3-11; N-terminus assumed
SMILES: CCC[C@H](N)C(=O)N[C@H](C(=O)N[C@H]1CSSC(C)(C)[C@@H](C(=O)N[C@H](C(=O)N2CCC[C@H]2C(=O)N[C@@H](CC(=O)O)C(N)=O)[C@@H](C)CC)NC(=O)[C@H]([C@@H](C)CC)NC(=O)[C@@H]2CCCN2C(=O)[C@@H]2CCCN2C(=O)[C@H](CC(C)(C)C)NC(=O)[C@H](CO)NC(=O)[C@H](CCCNC(=N)N)NC(=O)[C@H](CO)NC1=O)[C@@H](C)CC
B6: ((N-Me)G)-IC+SRS-((tBu)A)-PPI-(Pen)+IP-(PEG4-CH2CO2H (15 atoms))-NH2 (peptide)
peptide: [Sar]ICSRS[tBuAla]PPI[Pen]IP[NH(CH2CH2O)4CH2CO]-NH2
modifications: disulfide 3-11; N-terminus assumed
SMILES: CC[C@H](C)[C@H](NC(=O)CNC)C(=O)N[C@H]1CSSC(C)(C)[C@@H](C(=O)N[C@H](C(=O)N2CCC[C@H]2C(=O)NCCOCCOCCOCCOCC(N)=O)[C@@H](C)CC)NC(=O)[C@H]([C@@H](C)CC)NC(=O)[C@@H]2CCCN2C(=O)[C@@H]2CCCN2C(=O)[C@H](CC(C)(C)C)NC(=O)[C@H](CO)NC(=O)[C@H](CCCNC(=N)N)NC(=O)[C@H](CO)NC1=O
B7: (Cit)-IC+SRS-((tBu)A)-PPI-(Pen)+IPD-OH (peptide)
peptide: [Cit]ICSRS[tBuAla]PPI[Pen]IPD-OH
modifications: disulfide 3-11; N-terminus assumed
SMILES: CC[C@H](C)[C@H](NC(=O)[C@@H](N)CCCNC(N)=O)C(=O)N[C@H]1CSSC(C)(C)[C@@H](C(=O)N[C@H](C(=O)N2CCC[C@H]2C(=O)N[C@@H](CC(=O)O)C(=O)O)[C@@H](C)CC)NC(=O)[C@H]([C@@H](C)CC)NC(=O)[C@@H]2CCCN2C(=O)[C@@H]2CCCN2C(=O)[C@H](CC(C)(C)C)NC(=O)[C@H](CO)NC(=O)[C@H](CCCNC(=N)N)NC(=O)[C@H](CO)NC1=O
B8: (Orn)-IC+SRS-((tBu)A)-PPI-((N-Me)C)+IPD-NH2 (peptide)
peptide: [Orn]ICSRS[tBuAla]PPI[NMeC]IPD-NH2
modifications: disulfide 3-11; N-terminus assumed
SMILES: CC[C@H](C)[C@H](NC(=O)[C@@H](N)CCCN)C(=O)N[C@H]1CSSC[C@@H](C(=O)N[C@H](C(=O)N2CCC[C@H]2C(=O)N[C@@H](CC(=O)O)C(N)=O)[C@@H](C)CC)N(C)C(=O)[C@H]([C@@H](C)CC)NC(=O)[C@@H]2CCCN2C(=O)[C@@H]2CCCN2C(=O)[C@H](CC(C)(C)C)NC(=O)[C@H](CO)NC(=O)[C@H](CCCNC(=N)N)NC(=O)[C@H](CO)NC1=O
B9: LIC+SRS-((tBu)A)-PPI-(Pen)+IPD-NH2 (peptide)
peptide: LICSRS[tBuAla]PPI[Pen]IPD-NH2
modifications: disulfide 3-11; N-terminus assumed
SMILES: CC[C@H](C)[C@H](NC(=O)[C@@H](N)CC(C)C)C(=O)N[C@H]1CSSC(C)(C)[C@@H](C(=O)N[C@H](C(=O)N2CCC[C@H]2C(=O)N[C@@H](CC(=O)O)C(N)=O)[C@@H](C)CC)NC(=O)[C@H]([C@@H](C)CC)NC(=O)[C@@H]2CCCN2C(=O)[C@@H]2CCCN2C(=O)[C@H](CC(C)(C)C)NC(=O)[C@H](CO)NC(=O)[C@H](CCCNC(=N)N)NC(=O)[C@H](CO)NC1=O
B10: ((N-Me)G)-IC+SRS-((tBu)A)-PPI-(Pen)+IP-(PEG2(13 atoms))-NH2 (peptide)
peptide: [Sar]ICSRS[tBuAla]PPI[Pen]IP[PEG3]-NH2
modifications: disulfide 3-11; N-terminus assumed
SMILES: CC[C@H](C)[C@H](NC(=O)CNC)C(=O)N[C@H]1CSSC(C)(C)[C@@H](C(=O)N[C@H](C(=O)N2CCC[C@H]2C(=O)NCCOCCOCCOCCC(N)=O)[C@@H](C)CC)NC(=O)[C@H]([C@@H](C)CC)NC(=O)[C@@H]2CCCN2C(=O)[C@@H]2CCCN2C(=O)[C@H](CC(C)(C)C)NC(=O)[C@H](CO)NC(=O)[C@H](CCCNC(=N)N)NC(=O)[C@H](CO)NC1=O

Key:
[1] = biological target: recombinant human MASP2 active protease (amino acids 297-686, C-terminal His Tag) (human, UniProt O00187 297-686); assay: cell-based or functional assay
Sequence of recombinant human MASP2 active protease (amino acids 297-686, C-terminal His Tag) (O00187 other isoform, or with tags, fused parts or gaps limits assumed): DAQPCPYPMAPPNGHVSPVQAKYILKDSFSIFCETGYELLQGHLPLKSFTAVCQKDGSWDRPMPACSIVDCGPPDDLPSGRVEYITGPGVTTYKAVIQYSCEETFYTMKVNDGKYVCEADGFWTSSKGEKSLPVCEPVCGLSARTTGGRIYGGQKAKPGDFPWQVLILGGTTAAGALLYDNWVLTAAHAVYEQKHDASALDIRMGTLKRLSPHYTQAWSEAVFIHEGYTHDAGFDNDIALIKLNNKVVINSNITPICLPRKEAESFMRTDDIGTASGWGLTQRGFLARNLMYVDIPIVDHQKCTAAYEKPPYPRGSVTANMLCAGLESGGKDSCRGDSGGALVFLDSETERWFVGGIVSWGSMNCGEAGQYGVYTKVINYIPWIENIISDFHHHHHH

[2] = biological target: T1, recombinant human MASP1 active protease …; assay: cell-based or functional assay

| Binder | human MASP2 IC50 [1] | human MASP1 IC50 [2] |
| --- | --- | --- |
| [Orn]ICSRS[tBuAla]PPI[NMeC]IPD-NH2 (disulfide 3-11; also: HCl salt) [(Orn)-IC+SRS-((tBu)A)-PPI-((N-Me)C)+IPD-NH2 (HCl salt)] | 170 nM | 2.4 nM |
| B1 | 120 nM | 2.2 nM |
| B2 | 63 nM | 2.2 nM |
| B3 | 98 nM | 2.2 nM |
| B4 | 87 nM | 2.3 nM |
| B5 | 51 nM | 2.2 nM |
| B6 | 30 nM | 2.2 nM |
| [Sar]ICSRS[tBuAla]PPI[Pen]IP-{PEG8-NH2} (disulfide 3-11) [((N-Me)G)-IC+SRS-((tBu)A)-PPI-(Pen)+IP-(PEG8(28 atoms))-NH2] | 52 nM | 2.2 nM |
| B7 | 65 nM | 2.2 nM |
| B8 | 150 nM | 2.4 nM |
| B9 | 70 nM | 2.2 nM |
| B10 | 42 nM | 2.2 nM |
| [Sar]ICSRSLP[Oic]I[Pen]IP-NH2 (disulfide 3-11; also: HCl salt) [((N-Me)G)-IC+SRSLP-(Oic)-I-(Pen)+IP-NH2 (HCl salt)] | 43 nM | 2.2 nM |
